These results are taken from publication PMC8344073.

The target in one data set is T1, RORα (UniProt P35398 1-523).
T1 sequence: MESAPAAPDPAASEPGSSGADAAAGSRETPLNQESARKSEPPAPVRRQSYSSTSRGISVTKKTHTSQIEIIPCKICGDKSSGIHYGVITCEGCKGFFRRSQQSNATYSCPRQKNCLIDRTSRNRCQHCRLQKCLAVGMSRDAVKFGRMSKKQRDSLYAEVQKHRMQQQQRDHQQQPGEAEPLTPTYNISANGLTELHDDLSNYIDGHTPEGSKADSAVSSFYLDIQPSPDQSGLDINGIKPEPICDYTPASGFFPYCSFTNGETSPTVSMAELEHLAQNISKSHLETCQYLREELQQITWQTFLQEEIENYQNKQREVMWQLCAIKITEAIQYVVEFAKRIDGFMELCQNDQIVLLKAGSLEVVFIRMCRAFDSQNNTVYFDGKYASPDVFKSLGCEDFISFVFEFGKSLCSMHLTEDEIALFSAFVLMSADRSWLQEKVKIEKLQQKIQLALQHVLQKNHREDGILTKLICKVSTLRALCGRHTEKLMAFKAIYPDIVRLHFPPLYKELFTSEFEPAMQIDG
As to the kind of experiment: EMSA.

The target in another data set is ERα (UniProt P03372 1-595). As to the kind of experiment: EMSA.
ERα, sequence (P03372 whole entry): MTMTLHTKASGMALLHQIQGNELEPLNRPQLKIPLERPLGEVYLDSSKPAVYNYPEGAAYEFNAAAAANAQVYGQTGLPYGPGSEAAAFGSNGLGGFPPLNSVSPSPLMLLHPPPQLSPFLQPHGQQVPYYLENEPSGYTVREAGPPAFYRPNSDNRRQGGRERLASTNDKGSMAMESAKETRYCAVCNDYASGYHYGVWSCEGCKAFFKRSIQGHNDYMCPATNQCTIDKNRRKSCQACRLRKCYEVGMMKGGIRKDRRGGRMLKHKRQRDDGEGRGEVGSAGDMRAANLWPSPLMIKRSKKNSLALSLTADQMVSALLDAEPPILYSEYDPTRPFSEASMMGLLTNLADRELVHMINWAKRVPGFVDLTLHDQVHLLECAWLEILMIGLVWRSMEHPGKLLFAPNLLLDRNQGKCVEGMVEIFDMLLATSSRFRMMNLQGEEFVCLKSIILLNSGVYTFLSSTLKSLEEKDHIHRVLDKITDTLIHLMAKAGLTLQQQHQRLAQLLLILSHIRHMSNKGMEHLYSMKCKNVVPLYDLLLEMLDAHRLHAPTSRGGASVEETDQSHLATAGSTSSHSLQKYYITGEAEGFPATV

B1: SULT1E1 RORE (dsDNA)
DNA 1: AGAGAATTGAGGTCACAG
DNA 2: CTGTGACCTCAATTCTCT
With B1, the binding result with RORα was “binds”.

B2: SULT1E1 ERE (dsDNA)
DNA 1: GAGGGTCAAGATAAACATT
DNA 2: AATGTTTATCTTGACCCTC
For the molecule B2, the binding result with ERα is reported as “binds”.
